B1: POU domain, class 3, transcription factor 2, residues 356 to 411; numbered along this chain, P20265 (parent)
chain: KKRTSIEVSVKGALESHFLKCPKPSAQEITSLADSLQLEKEVVRVWFCNRRQKEKR

Variants of: B1
Experiment: abundance fitness (aPCA) (normalised: wild type 0, dead -1); higher = more abundant; growth selection in yeast, the domain comes from the species named
Settings: Homo sapiens

Abundance fitness: each site, then its substitutions
F18: T -1.2, S -0.824, M -1.02, V -1.03, N -0.856, R -0.872, W -0.335, I -1.1, L -0.836, K -0.936
S25: R -0.47, N -0.167, L -0.423, P -0.579, G -0.194, T 0.038, A -0.322, C -0.231, I -0.793, K -0.318, M -0.446, Y -0.798, F -0.902, V -0.725, H -0.467
L19: I -0.113, E -0.026, D -0.142, G -0.245, N -0.075, P -0.911, K -0.162, S -0.03, R 0.006, M 0.007, V -0.056, T -0.183, F -0.474, C -0.114, Y -0.248
L38: T -0.26, F -0.788, A -0.713, P -0.969, K -0.927, V -0.119, Y -0.827, E -0.696, D -0.983, Q -0.519, I -0.191, S -0.924, W -0.804, N -0.964, G -0.871
Q27: K -0.014, Y -0.268, W -0.292, C -0.081, T 0.02, V -0.061, A -0.126, S -0.079, P -0.21, I -0.14, N 0.028, M -0.35, R -0.007, F -0.327, G -0.131, E -0.155, D -0.08, H 0.092
A26: P -0.224, K -0.162, L -0.179, M 0.03, Q 0.01, G -0.141, I -0.05, N -0.097, F -0.312, V -0.049, W -0.11, R -0.13, D 0.151, S -0.134, C -0.244, E -0.064, T -0.033, Y -0.235, H -0.059
E28: C -0.299, L -0.369, S -0.455, T -0.088, D -0.281, V -0.195, F -0.511, R -0.466, I -0.52, M -0.437, Q -0.402, P -0.802, N -0.551, A -0.257, K -0.413, W -0.505
I29: N -1.05, H -0.817, E -0.763, K -0.994, S -0.884, F -0.786, A -1.03, L -0.095, T -0.593, Q -0.782, Y -0.741, C -0.633, M -0.093, R -0.93, V -0.158, W -0.855
K20: L -0.322, M -0.336, F -0.175, Q -0.443, G -0.466, T -0.16, A -0.319, E -0.445, H -0.463, C -0.392, N -0.262, D -0.46, I -0.215, R -0.223, P -1.03, Y -0.379, V -0.323, W -0.605, S -0.248
D34: G -0.1, E -0.023, A 0.082, R 0.244, K 0.191, S -0.041, L 0.098, V -0.04, H 0.212, P -0.719, M 0.01, F 0.031, Y 0.184, T 0.055, N 0.148, W 0.153, Q 0.105
K23: S 0.024, F -0.163, Y -0.312, V -0.045, P -0.863, Q -0.002, A -0.135, D 0.093, M -0.077, R -0.041, I -0.117, E 0.072, W -0.336, L -0.203, T 0.086, N 0.105, G -0.426, C 0.023
S35: F -0.22, V -0.119, A -0.086, H -0.026, E 0.03, K 0.136, N -0.125, T 0.026, L -0.065, Q 0.008, C -0.133, G -0.033, P -0.961, D 0.091, Y -0.115, R 0.051, M -0.095, I -0.062, W -0.113
A33: I -1.03, M -0.759, G -0.806, V -0.71, T -0.83, Q -1.12, K -0.631, N -0.963, C -0.428, Y -0.963, F -0.599, W -0.735, E -0.55, R -0.936, H -0.789, S -0.236, P -0.794
T30: F -0.396, R -0.151, S 0.036, V -0.016, K 0.008, D 0.05, W -0.324, E 0.022, C -0.131, L -0.091, Q 0.078, N 0.212, A -0.041, H -0.205, Y -0.285, I -0.237
P22: W -0.699, T -0.313, D -0.122, K -0.348, E -0.246, V -0.713, S -0.253, G -0.46, H -0.189, F -0.996, Q 0.137, N -0.337, L -0.919, R -0.367, C -0.227, I -0.704, A -0.044, Y -0.718
L32: P -0.944, G -0.834, E -0.916, M -0.08, N -1.07, S -0.875, H -0.857, R -0.911, F -0.341, D -1.03, V -0.303, K -0.927, Y -0.831, T -0.943, Q -0.789, W -0.915, I -0.161, A -0.994
P24: G -0.691, T -0.986, E -0.846, M -0.628, V -0.821, W -0.839, L -0.936, C -0.731, A -0.789, F -0.999, I -0.919, S -0.998, Q -0.86
E39: A -0.224, H 0.036, G -0.324, F -1.01, C -0.133
L36: F -0.291, I -0.7, V -0.53, C -0.428, K -0.868, G -0.866, D -0.842, M -0.564, N -0.543, E -0.892, R -0.938, Y -0.151, H -0.527, A -0.929, P -0.608, T -0.7, Q -1.25, W -0.545
C21: Y -0.506, Q -0.01, I -0.484, N -0.168, K -0.478, W -0.437, D -0.062, E -0.072, R -0.419, M -0.354, A -0.304, L -0.651, F -0.351, P -1.14, G -0.521, V -0.421
Q37: W -0.394, K -0.064, N -0.077, R -0.138, P -0.916, T -0.316, M -0.151, D -0.192, C 0.087, A -0.054, Y -0.353, F -0.183, V -0.394, S -0.032, L -0.245, I -0.63
